Changes are numbered by the printed parent chain.
Key:
Assay in all cases: SPR; KD relative to WT C2;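 note: biacore SPR at 37 °C, anti-C2 mAbs captured on an anti-human IgG chip, alanine or serine C2 surface mutants tested, KD from 1:1 fit compared with wild-type C2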
human C2 M452A = target: T1, human C2 M452A (human, UniProt P06681 21-752)
T1 sequence: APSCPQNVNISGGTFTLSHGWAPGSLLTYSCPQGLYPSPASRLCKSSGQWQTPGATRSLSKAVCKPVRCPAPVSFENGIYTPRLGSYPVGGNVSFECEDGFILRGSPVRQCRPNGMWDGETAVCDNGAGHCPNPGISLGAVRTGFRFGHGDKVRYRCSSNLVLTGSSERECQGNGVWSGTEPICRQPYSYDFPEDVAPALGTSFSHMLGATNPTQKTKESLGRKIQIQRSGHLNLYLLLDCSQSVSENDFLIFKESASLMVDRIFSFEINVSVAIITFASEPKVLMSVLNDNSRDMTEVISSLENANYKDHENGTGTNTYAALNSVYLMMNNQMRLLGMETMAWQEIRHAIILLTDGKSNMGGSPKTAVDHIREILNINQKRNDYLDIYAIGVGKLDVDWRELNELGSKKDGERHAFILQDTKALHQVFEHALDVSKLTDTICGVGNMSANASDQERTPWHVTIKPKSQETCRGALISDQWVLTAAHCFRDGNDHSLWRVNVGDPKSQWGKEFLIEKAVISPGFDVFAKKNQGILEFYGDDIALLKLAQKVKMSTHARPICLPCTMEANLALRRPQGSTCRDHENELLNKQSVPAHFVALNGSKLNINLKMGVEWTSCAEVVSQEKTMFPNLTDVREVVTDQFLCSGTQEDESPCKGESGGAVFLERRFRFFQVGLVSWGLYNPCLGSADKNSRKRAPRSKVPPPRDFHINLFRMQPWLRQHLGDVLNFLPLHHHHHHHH

human C2 H446A = target: T2, human C2 H446A (human, UniProt P06681 21-752)
T2 sequence: T1 sequence with H426A, A432M

human C2 A326S = target: T3, human C2 A326S (human, UniProt P06681 21-752)
T3 sequence: T1 sequence with A306S, A432M

human C2 S428A = target: T4, human C2 S428A (human, UniProt P06681 21-752)
T4 sequence: T1 sequence with S408A, A432M

B1: RF16-214 (antibody, V domains shown)
VH: EVQLLESGGGLVQPGGSLRLSCAASGFTFSWYQMMWVRQAPGKGLEWVSRIYPSGGGTAYADSVKGRFTISRDNSKNTLYLQMNSLRAEDTAVYYCARDAGYGDNWGQGTLVTVSS
VL: QSALTQPPSVSVSPGQTASITCSGDKLGEKYASWYQQKAGQSPVMVIYQDRKRPSGIPERFSGSNSGNTATLTISGTQAMDEADYYCQAWDTRAVVFGGGTKLTVLG
- Fold diff (human C2 M452A): 1 fold
- Fold diff (human C2 H446A): 5 fold
- Fold diff (human C2 A326S): 1 fold
- Fold diff (human C2 S428A): 2 fold
